{
  "source": "patent US6531296B1",
  "about": "“Nuclear tyrosine kinase Rak” (The University of North Carolina at Chapel Hill, priority 1995, dated 2003)",
  "molecular_target": "T1, CDC2 (Homo sapiens, UniProt P06493)",
  "T1 construct": "incubated with immunoprecipitated CDC2; endogenous in cells",
  "T1 sequence (P06493 whole entry, the tested form may be a part)": "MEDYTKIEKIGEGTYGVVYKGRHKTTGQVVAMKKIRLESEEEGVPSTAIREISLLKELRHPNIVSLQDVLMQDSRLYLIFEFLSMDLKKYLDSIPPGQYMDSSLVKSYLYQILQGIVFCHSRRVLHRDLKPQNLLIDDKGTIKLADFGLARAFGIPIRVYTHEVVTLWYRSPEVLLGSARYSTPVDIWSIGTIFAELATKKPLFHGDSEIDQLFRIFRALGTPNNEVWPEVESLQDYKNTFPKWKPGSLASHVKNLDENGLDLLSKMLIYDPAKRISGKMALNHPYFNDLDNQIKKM",
  "assay": "In vitro kinase assay of immunoprecipitated CDC2 with Histone H1 as exogenous substrate",
  "assay_type": "biochemical",
  "method": "The 110 N-terminal amino acids of Rak were produced as a GST fusion protein (RAKNT:GST) and incubated with immunoprecipitated CDC2, and subjected to an in vitro kinase assay with Histone H1 added as an exogenous substrate, and analyzed by SDS-PAGE. […] This fusion protein was incubated with immunoprecipitated CDC2, and subjected to an in vitro kinase assay with Histone H1 added as an exogenous substrate, and analyzed by SDS-PAGE.\nThe CDC2 binding domain of RAK appears to be between amino acids 86-110. Since the binding of RAK to CDC2 is exceptionally strong, the biological function of this interaction was explored.",
  "note": "No end group written: not given here.",
  "data": [
    {"sequence": "KRRDGSSQQLQ [SEQ ID NO:4]", "values": [
      {"measurement": "inhibition of CDC2 histone H1 phosphorylation activity", "value": "reproducibly attenuated"}
    ]}
  ]
}
